Assay results from PMC3955401 (Nature, 2013).
No end group written: not given here.

Assays:
Assay in all cases: pull-down
[1] = target: GST-53BP1 Tudor-UDR (UniProt Q12888 1484-1631)
[2] = target: GST-53BP1 Tudor (UniProt Q12888 1484-1603)
[3] = target: GST-53BP1 Tudor-UDR L1619A (UniProt Q12888 1484-1631, L1619A)
Chain of GST-53BP1 Tudor-UDR L1619A (Q12888 1484-1631 L1619A): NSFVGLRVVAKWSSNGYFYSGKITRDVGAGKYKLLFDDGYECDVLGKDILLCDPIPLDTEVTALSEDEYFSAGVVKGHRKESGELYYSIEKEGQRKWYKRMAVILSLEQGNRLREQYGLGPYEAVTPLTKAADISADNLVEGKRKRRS

Chain of GST-53BP1 Tudor-UDR (Q12888 1484-1631): as the sequence (Q12888 1484-1631 L1619A) above, with A136L counted along it
Chain of GST-53BP1 Tudor (Q12888 1484-1603): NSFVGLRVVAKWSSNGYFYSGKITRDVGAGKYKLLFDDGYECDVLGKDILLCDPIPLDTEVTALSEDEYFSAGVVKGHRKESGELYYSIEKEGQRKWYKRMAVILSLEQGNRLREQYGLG

binding result [1]: binds
binding result [2]: binds
binding result [3]: binds
B1: H4K20me2 peptide (peptide)
peptide: YGKGGAKRHRK(dimethyl)VLRD
